In experiment [1] the target is T1, Human SLC34A2 (human, UniProt O95436 1-690).
T1 construct: whole, on cells; also called SLC34A2 on OVCAR3 cells; Rat 1E Human SLC34A2
T1 sequence (looked up): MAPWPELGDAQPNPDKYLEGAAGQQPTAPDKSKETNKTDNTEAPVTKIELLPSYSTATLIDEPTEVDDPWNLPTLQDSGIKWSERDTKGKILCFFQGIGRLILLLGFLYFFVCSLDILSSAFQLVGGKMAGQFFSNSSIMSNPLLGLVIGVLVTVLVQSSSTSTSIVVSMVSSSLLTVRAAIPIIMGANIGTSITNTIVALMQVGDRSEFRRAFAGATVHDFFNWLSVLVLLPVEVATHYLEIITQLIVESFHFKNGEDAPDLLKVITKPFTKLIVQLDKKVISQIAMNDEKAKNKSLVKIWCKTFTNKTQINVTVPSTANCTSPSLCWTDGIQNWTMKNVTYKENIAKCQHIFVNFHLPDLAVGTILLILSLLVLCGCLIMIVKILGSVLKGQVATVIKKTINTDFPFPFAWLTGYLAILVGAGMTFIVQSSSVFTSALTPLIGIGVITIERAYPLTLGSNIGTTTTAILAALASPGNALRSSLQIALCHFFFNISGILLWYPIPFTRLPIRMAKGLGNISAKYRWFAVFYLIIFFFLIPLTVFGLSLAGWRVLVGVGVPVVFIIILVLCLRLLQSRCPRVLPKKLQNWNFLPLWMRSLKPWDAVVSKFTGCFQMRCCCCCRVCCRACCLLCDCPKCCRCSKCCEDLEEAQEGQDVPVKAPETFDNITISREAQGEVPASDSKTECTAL
Kind of experiment: cell binding, OVCAR3 cells.

The next experiment has as its target Murine SLC34A2 (murine) (UniProt Q9DBP0). Kind of experiment: cell binding, Rat1E cells expressing murine SLC34A2.
Experiment [2] concerns the target T2, Cyno SLC34A2 (cynomolgus monkey, UniProt A0A2K5UHY1 1-690).
T2 construct: whole, on cells; Recombinant, on Rat1E cells; also called cynomolgus monkey SLC34A2; Rat1E cells expressing SLC34A2 (Cynomolgus)
T2 sequence: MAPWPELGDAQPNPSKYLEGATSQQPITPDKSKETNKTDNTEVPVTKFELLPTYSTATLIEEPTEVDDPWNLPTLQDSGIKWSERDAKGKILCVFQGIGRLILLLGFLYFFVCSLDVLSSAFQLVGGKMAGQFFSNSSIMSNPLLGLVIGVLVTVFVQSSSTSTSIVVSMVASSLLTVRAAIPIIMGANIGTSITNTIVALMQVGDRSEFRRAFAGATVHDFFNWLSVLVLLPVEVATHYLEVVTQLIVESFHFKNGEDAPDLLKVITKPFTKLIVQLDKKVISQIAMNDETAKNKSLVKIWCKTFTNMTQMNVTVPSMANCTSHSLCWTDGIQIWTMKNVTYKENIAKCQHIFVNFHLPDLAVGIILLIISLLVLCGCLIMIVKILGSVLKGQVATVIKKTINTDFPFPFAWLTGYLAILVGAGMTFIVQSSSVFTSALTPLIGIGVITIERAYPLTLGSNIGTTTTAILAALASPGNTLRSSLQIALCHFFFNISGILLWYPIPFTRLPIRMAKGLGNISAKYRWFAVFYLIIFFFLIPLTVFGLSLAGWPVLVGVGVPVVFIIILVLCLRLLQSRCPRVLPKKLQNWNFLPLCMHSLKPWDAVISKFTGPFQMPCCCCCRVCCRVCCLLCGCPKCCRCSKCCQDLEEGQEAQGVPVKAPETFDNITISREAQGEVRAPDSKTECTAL
Kind of experiment: cell binding, Rat1E cells expressing cyno SLC34A2.

Experiment [3] has as its target T1, Human SLC34A2. Kind of experiment: cell binding, Rat1E cells expressing human SLC34A2.
For the next experiment, the target named is T3, Rat SLC34A2 (rat, UniProt Q9JJ09 1-695).
T3 construct: whole, on cells; also called Rat1E cells expressing SLC34A2 (Rat)
T3 sequence (looked up): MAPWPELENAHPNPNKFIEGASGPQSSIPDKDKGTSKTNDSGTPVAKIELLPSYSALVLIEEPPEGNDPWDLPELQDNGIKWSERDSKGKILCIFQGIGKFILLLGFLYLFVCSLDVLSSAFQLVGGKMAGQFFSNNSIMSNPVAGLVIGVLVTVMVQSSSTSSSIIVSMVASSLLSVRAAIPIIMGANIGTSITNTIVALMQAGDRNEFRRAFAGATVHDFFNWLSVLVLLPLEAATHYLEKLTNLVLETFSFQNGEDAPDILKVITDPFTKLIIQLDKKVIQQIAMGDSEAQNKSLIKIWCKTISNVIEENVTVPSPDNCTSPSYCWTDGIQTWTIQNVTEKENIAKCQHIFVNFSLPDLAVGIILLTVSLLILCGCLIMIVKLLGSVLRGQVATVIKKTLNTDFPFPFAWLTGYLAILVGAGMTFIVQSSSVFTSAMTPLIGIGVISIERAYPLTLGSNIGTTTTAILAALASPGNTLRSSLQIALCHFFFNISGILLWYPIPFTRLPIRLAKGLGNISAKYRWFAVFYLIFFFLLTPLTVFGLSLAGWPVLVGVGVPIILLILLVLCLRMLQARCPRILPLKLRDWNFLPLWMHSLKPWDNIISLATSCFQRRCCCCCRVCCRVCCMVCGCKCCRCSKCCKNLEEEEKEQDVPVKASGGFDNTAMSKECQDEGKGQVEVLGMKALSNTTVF
The experiment in a line: binding affinity on Rat1E cells expressing rat SLC34A2.

The target of experiment [4] is T1, Human SLC34A2. Kind of experiment: binding affinity on Rat1E cells expressing human SLC34A2.
The target of experiment [5] is T2, Cyno SLC34A2. The experiment in a line: binding affinity on Rat1E cells expressing cynomolgus SLC34A2.
The target in experiment [6] is T4, Human SLC34A1 (human, UniProt Q06495).
T4 sequence (target protein, looked up): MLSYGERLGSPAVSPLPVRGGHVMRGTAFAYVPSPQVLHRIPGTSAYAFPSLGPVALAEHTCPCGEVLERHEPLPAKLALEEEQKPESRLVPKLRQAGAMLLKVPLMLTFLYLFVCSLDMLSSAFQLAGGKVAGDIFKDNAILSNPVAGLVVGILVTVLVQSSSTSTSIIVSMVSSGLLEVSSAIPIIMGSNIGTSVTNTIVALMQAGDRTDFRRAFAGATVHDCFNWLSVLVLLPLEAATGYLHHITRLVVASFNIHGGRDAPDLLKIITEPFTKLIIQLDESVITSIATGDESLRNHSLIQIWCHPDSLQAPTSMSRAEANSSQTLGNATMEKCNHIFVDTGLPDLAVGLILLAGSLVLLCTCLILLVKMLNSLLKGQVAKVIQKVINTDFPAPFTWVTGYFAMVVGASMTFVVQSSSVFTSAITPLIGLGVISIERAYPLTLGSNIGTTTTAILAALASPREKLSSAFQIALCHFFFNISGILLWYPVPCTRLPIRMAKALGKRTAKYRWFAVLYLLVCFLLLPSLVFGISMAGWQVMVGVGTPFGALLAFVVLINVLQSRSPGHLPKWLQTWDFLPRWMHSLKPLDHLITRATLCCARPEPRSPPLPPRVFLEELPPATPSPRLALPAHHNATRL
The experiment in a line: flow cytometry on 293-FT cells transiently transfected with human SLC34A1, overlay with isotype control.

Experiment [7] deals with T5, Human SLC34A3 (human, UniProt Q8N130).
T5 sequence (target protein, looked up): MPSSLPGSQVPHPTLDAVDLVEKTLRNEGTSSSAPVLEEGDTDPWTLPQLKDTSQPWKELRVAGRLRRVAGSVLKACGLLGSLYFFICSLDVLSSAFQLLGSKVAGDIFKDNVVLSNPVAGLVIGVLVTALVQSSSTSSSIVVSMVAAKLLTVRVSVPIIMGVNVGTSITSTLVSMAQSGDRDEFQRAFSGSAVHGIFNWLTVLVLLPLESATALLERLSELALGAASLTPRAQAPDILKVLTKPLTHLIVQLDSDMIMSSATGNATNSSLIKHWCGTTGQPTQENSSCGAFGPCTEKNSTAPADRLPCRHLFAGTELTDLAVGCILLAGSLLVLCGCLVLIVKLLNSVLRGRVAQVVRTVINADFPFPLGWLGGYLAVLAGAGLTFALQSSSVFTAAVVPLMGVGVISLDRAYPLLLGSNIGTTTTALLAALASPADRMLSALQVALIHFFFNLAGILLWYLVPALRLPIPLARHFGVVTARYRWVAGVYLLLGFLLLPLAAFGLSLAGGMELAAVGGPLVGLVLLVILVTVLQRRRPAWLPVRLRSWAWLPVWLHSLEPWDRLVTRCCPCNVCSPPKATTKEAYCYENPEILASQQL
The experiment in a line: flow cytometry on 293-FT cells transiently transfected with human SLC34A3, overlay with isotype control. Background: A flow cytometer gives signals particle by particle.

In experiment [8] the target is T1, Human SLC34A2. Kind of experiment: cell-based or functional assay.
The target in experiment [9] is T4, Human SLC34A1. The experiment in a line: flow cytometry on 293-FT cells transiently transfected with human SLC34A1, overlay with isotype control ADC.
Experiment [10] addresses T5, Human SLC34A3. The experiment in a line: flow cytometry on 293-FT cells transiently transfected with human SLC34A3, overlay with isotype control ADC.

B1: cHv83-1b15.G1(L328C)k (antibody, V domains shown)
VH: EVQLVESGGGWVQPGGSLRLSCAASGFTFSSHIMYWVRQAPGKGLEYVSGISSNGLSSYYVDSVKGRFTISRDNSKNLLYVHMGSLKPEDMAMYYCARGGRDRVPAVFDYWGQGTLVTVSS
VL: DIQMTQSPSSLSASIGDRVTITCRASQSIGTFLNWYQQKPGKAPKVLIYVASSLQSGVPSRFIGSGSGTDFTLTISSLQPEDFATYYCQQSYSVPITFGQGTRLEIKR
notes: the name says L328C in the IgG1 constant region; also called [Ag]AB-3; cHv83-1b15.G1k(L328C)k
The term Kd denotes the equilibrium constant for the complex coming apart. Read a low Kd as a tighter complex. For B1, the Kd in the experiment with Human SLC34A2 [1] came to 3.79 nM; with Murine SLC34A2 (murine) it was 0.0631 nM; with Cyno SLC34A2 [2] it was 0.967 nM; with Human SLC34A2 [3] it was 1.03 nM; in the experiment with Rat SLC34A2, 0.246 nM; with Human SLC34A2 [4] it was 0.721 nM. In the experiment with Cyno SLC34A2 [5], the Kd is 0.67 nM. In the experiment with Murine SLC34A2 (murine), the Bmax worked out at 15000. Besides, the binding result with Human SLC34A1 [6] and in the experiment with Human SLC34A3 [7] was “no binding” in each case.

B2: cHv83-3a23.G1(L328C)k (antibody, V domains shown)
VH: EVQLVESGGGLVQPGGSLRLSCAASGFTFSSYVMHWVRQAPGKGLEYVSGVSSSGDSTFYVDSVKGRFTISRDNSKNTLYLQMGSLRAEDMAVYYCARGGITGAPLVFDIWGQGTMVTVSS
VL: DIQMTQSPSSLSASVGDRVTITCRASQSISRFLNWYQQKPGKAPKVLIYVTSSLQSGVPSRFSGSGSGTDFTLTISSLQPEDFATYYCQQSYNTPITFGQGTRLEIKR
notes: the name says L328C in the IgG1 constant region; also called [Ag]AB-2; unconjugated antibody of OT1 / OT#1
With B2, the Kd stood at 2.28 nM with Human SLC34A2 [1]; 0.0903 nM in the experiment with Murine SLC34A2 (murine); 0.17 nM in the experiment with Cyno SLC34A2 [2]; 0.254 nM with Human SLC34A2 [3]; 0.689 nM with Rat SLC34A2; 0.553 nM with Human SLC34A2 [4]. This molecule also returned a Kd with Cyno SLC34A2 [5] of 0.17 nM. In the experiment with Murine SLC34A2 (murine), this molecule displayed a Bmax of 11300. Further, the binding result with Human SLC34A1 [6] and with Human SLC34A3 [7] was “no binding” throughout.

B3: cHv83-3a23.G1(L328C)k-AGL-01332-93 (OT#1) (other)
VH: EVQLVESGGGLVQPGGSLRLSCAASGFTFSSYVMHWVRQAPGKGLEYVSGVSSSGDSTFYVDSVKGRFTISRDNSKNTLYLQMGSLRAEDMAVYYCARGGITGAPLVFDIWGQGTMVTVSS
VL: DIQMTQSPSSLSASVGDRVTITCRASQSISRFLNWYQQKPGKAPKVLIYVTSSLQSGVPSRFSGSGSGTDFTLTISSLQPEDFATYYCQQSYNTPITFGQGTRLEIKR
modifications: AGL-01332-93 drug-linker conjugated to the antibody; engineered Cys at 328 (L328C) lies in the IgG1 constant region, outside the VH pieces given
notes: Human IgG1 (L328C) / kappa
Turning to B3, in the experiment with Human SLC34A2 [8], the “in vitro cytotoxicity in target-positive OVCAR3 cells” value was > 10 fold better EC50 than the benchmark ADC. Further, the results for the equilibrium dissociation constant (Kd) with Rat SLC34A2, in the experiment with Human SLC34A2 [4] and with Cyno SLC34A2 [5] were 0.686 nM, 0.411 nM and 0.227 nM, respectively. Moreover, the binding result with Human SLC34A1 [9] and with Human SLC34A3 [10] was “no binding” in each case.

B4: cHv83-1b15.G1(L328C)k-AGL-01332-93 (OT#2) (other)
VH: EVQLVESGGGWVQPGGSLRLSCAASGFTFSSHIMYWVRQAPGKGLEYVSGISSNGLSSYYVDSVKGRFTISRDNSKNLLYVHMGSLKPEDMAMYYCARGGRDRVPAVFDYWGQGTLVTVSS
VL: DIQMTQSPSSLSASIGDRVTITCRASQSIGTFLNWYQQKPGKAPKVLIYVASSLQSGVPSRFIGSGSGTDFTLTISSLQPEDFATYYCQQSYSVPITFGQGTRLEIKR
modifications: AGL-01332-93 drug-linker conjugated to the antibody; engineered Cys at 328 (L328C) lies in the IgG1 constant region, outside the VH pieces given
notes: Human IgG1 (L328C) / kappa
For B4, the “in vitro cytotoxicity in target-positive OVCAR3 cells” value with Human SLC34A2 [8] is > 10 fold better EC50 than the benchmark ADC. In addition, the figures for the Kd with Rat SLC34A2, in the experiment with Human SLC34A2 [4] and in the experiment with Cyno SLC34A2 [5] were 0.913 nM, 1.76 nM and 1.2 nM, respectively. Moreover, the binding result with Human SLC34A1 [9] and with Human SLC34A3 [10] was “no binding” throughout.

Source of the values: patent US20230073692A1 (CYTOMX THERAPEUTICS, published 2023).
